Legend:
[1] = target: T1, Mycobacterium tuberculosis NrdI (Mycobacterium tuberculosis, UniProt P9WIZ3); experiment: crystal structure
T1 sequence: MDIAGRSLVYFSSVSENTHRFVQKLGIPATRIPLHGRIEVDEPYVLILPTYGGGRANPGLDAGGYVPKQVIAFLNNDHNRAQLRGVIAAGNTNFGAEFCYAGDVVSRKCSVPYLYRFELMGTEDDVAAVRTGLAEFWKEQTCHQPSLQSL

[2] = target: the molecule itself; experiment: crystal structure

B1: Mycobacterium tuberculosis NrdF2 (R2 subunit of the Class Ib ribonucleotide reductase) (enzyme)
chain: TGNAKLIDRVSAINWNRLQDEKDAEVWDRLTGNFWLPEKVPVSNDIPSWGTLTAGEKQLTMRVFTGLTMLDTIQGTVGAVSLIPDALTPHEEAVLTNIAFMESVHAKSYSQIFSTLCSTAEIDDAFRWSEENRNLQRKAEIVLQYYRGDEPLKRKVASTLLESFLFYSGFYLPMYWSSRAKLTNTADMIRLIIRDEAVHGYYIGYKFQRGLALVDDVTRAELKDYTYELLFELYDNEVEYTQDLYDEVGLTEDVKKFLRYNANKALMNLGYEALFPRDETDVNPAILSALSPNADENHDFFSGSGSSYVIGKAVVTEDDDWDF
stoichiometry N [1]: 2 NrdF2 per NrdI
stoichiometry N [2]: 2

— paper doi:10.1101/2023.06.06.543845 (bioRxiv, 2023)
